Experimental data published in the DeepSol protein solubility set.

Assay: soluble on expression in E. coli; label from the status in PepcDB or PDB records

Soluble on expression in E. coli, not soluble:
MGSDKIHHHHHHMRITNTLTGKKEEFVPIQPGVVRMYVCGPTVYDLIHVGNARPALVFDVFRRYLEYRGYRVIMVQNFTDIDDKIINKANQLGVDYKTVADTFIAEYWRDAHALGIRPANFHPRTTDFVEDIVEIIEKLVEKGFAYQTETGVYFDVRKFEKYGELSKKKIEDLIAGARVEVDETKKSPLDFSLWKKAKPGEPCWKSPWGEGRPGWHIECTVMSVKILGESFDIHAGGEDLVFPHHENEKAQAEALTGKVFARYWMHNGMVRFLGDKMSKSTGNIFTVREAVKRYGRDGLRYMILSKHYRSPMDFSEELLQDYSRAVKRVWEILGRYEKSGDIGIPKRNAVYEEYVNRFVEALDDDFNTPVAVSLIFELARNLSKAMDDNDREDALLYYHLIRREFGPVLGLFDLNEEKKEVSSEELLKLLIEVRDVLRKEKRYDLSDRIRDRLREIGIILKDTPSGTEYTVE, MGSDKIHHHHHHMRITSIFLFTIIIFGGLSCSNDDSLIHNKTKGILEKYPEPTVTITAHNHIPFLAKNILEEKAITKSVNIISDIAWANGFGRTITARSDEMVIPDNMNRYIYPGSILEASSIAETRFTPIPVKNNPVHVSVSFPAKKVGGTIKEPSLLNIRQFVMDLMQQNNIGKQSATLSFDVQKFVSYDELKMTFGSNENTGLLFWGTSSAQYQNKYRIIRSSGLCIKFIQKYFTLDMDIPSNGLISGTIPGGYSPVYVSSIAYGRIGILTLETNYDYEKANKLVKETFNSLFINKNNTLTKEQEAFFNSAEMKVFIAGGSGVTGVKTIGGIKEFTNYITEGGEFSASSPGKPIFCSFANYSDDSPYRINFKIDIDSDPVYARLEYDITKDVSGGNVKSWYTDANVYLRFYADKACSIKTIAQNYIGFNINRLILQQYVGPNYSVSKAREVKLDQNLTFHNQTKGIEYPIAYGHRMTETIGTTYLDRGNWTNDHFYLRAGKFYQVRPPINMKYTCFIDYHNQNEYDCSDFE, MGSDKIHHHHHHMRIVAVTDIHGNMASTVALANILKKIEAELLLIAGDITHFSGGEIAKQILEPLLKLGVRVLAVMGNCDGKDVPKVLDELGINVHNARVEVKKVGVVGFGGSSVTPFSTIWEFSEEEIYSSLKRNYRSGDIVLTHAPPYRTRIDKTFSGIHAGSKGLRKFIEEEQPPICICGHIHEARGIDKIGETLVVNPGPLSRRYYAVIDSETWEVKLERL, MGSDKIHHHHHHMRIVFVGTPEFAAEILEHLIKNGFNVVGVVTQPDKPRGRGRKVAPTPVKAVAEKHEVPFIQPESINKKEALEFLRSVRPDVIIVASYGKILGEKVLSLPRLGCYNIHPSLLPKYRGASPIQRVLENGEERTGVTIYKMVKELDAGPIALQKEISVDPFETFDQLEKRLIELSKEMLIEFLEKLKTGNIELKEQDHSRATYAPMIKKEDLIVDFSKDAESVKNKIRAYDSRPGARAFLGNVEVKLFGVTAIDSSGDEPGLINYIDREGAWIGTGDGKVKVRYIQFPGKKKMTFWEAKNGRLIIEGMRFERRYES, MGSDKIHHHHHHMRKHGGDVYAYSGQYENILDFSANTNAFIDTGVLSRYPEVSPGDIEKMILQYTGAKSLRVIIGPGLTHFIYRIPAWMGLRRSLIIEPNFNEYEASLLAYGSRTSSLGLGVLKRNPEIVRSYRPDSIFICSPVNPTGDLVDAGLLRKLSMEMSRMGGILFVDQAFGDFVPEHAEETVRIAEEMGNVIIGRSLTKILSIPSLRLGYILVSDQVFGMIRDREEPWAVCEPALEFVRKADLKALRDTSLKRIGEERSYLMEALENMGFEILGDPHANFIAFRSPFEIDLKKQLLKSGILIRDLSDYADFGKNCYRVAVRGRSENALLIQALRNAIL, MGSDKIHHHHHHMRKLIFIAFMVMSVCGYAQKYEVGTTTAVWKAPAAADFLHAKAIGVKYVEVAFNQCYRGVPVDEVIPRIKEMKAKIDSADIEVWSIHLPFSRTLDISVLDDRLRKENVDFMAEMIELCAMFQPTCLVLHPSSEPIADSIRAQRIANASESIAYLKKYADRIGAQLCIENLPRTCLGNTPEELMRIVGDIPDVKVCFDTNHYTKGTTEHFVAIVGSRIGTIHASDFDLVNECHWLPTQGNIKWGKLMQDLEKTGYKGVFMYEATKDHENNNVRPALERIAETFDKITDDYKTLK, MGSDKIHHHHHHMRLNPERPLLSGSCTQYLDWGLPIAMDAVGPGEARRILDRYGADRVLLVGPPGVGKSTVVRSYAEDSASREGLEFVDLSEARSLEDLDTDSTYAFLHIYAPLVRAEDLAFIARRGEGYDWTLPSRLAYLTRPGVRGLVFIDEITNVALPEVQTILFSMVLDKRVAYNRLSSGVEVVAAGNSPRDSPVSQWPPPPLLDRFRLLIRVKPPDLEEWVSWMNSVGRPWDRRVAAVLKVKPVLMYRPPEDEEDKFPTPRSWSQLAWELAKTGAHGDEAVRIAAMVVGRRAAEEARQFLQPDPASLDLSTFPRLDERERLTLLSVEAGRLASQDVVELCRTLEKVGSYGAHYAVWLLMLSGVDTVEAARSCSYVEDLLSRLSSYLG, MGSDKIHHHHHHMRLNRETIKDRAAWEKIGVRPPYFDLDEVEKNTKEQPKWVHFGGGNIFRGFVAAVLQNLLEEGKEDTGINVIELFDYEVIDKVYKPYDNLSIAVTIKPDGDFEKRIIASVMEALKGDPSHPDWERAKEIFRNPSLQLASLTITEKGYNIEDQAGNLFPQVMEDMKNGPVSPQTSMGKVAALLYERFKAGRLPIALLSLDNFSRNGEKLYSSVKRISEEWVKSGLVEKDFIDYLEKDVAFPWSMIDKIVPGPSEFIKEHLEKLGIEGMEIFVTSKRTHIAPFVNMEWAQYLVIEDSFPNGRPKLEGADRNVFLTDRETVEKAERMKVTTCLNPLHTALAIFGCLLGYKKIADEMKDPLLKKLVEGVGEEGIKVVVDPGIINPREFLNEVINIRLPNPYLPDTPQRIATDTSQKMPIRFGETIKAYHERPDLDPRNLKYIPLVIAGWCRYLMGIDDEGREMQLSPDPLLENLRSYVSKIKFGDPESTDDHLKPILSSQQLFRVNLYEVGLGEKIEELFKKMITGPRAVRKTLEEVVGREDG, MGSDKIHHHHHHMRMPEMMFLQGNEACALGAIKAGCRFFAGYPITPSTEIAEVMARELPKVGGVFVQMEDEIASAAAVVGASLAGVKSMTATSGPGFSLIQEVIGYAIMTETPCVFANVMRLGPSTGLPTKPAQGDIMQTRWGTHGDHAIIALYPSSVAEVYRYIITAFNLAEEYRTPVVFLMDAMLGHMRESFYPPKDEELFIIERLKDTSFGEEDLFVPFSESEYAEPTPFPMAEMGKTKFHVSGLVHDESGFPLSSPDAAEKLIRRLTNKIRLHADEIAFYEEYETEDAEILVVAYGIVARSAMKAVKIARRDRIKVGLFKPITIWPAPVSRFRKLAEKVNTIVIAEMNLGQYAKELISSIDRRSKVIRTINKVNGELIKPEEILDVITETQIEI, MGSDKIHHHHHHMRNSLLVFTLDCQVKIDSKTVDCQTNIDSFLTPNSNLIIVEVEEIKRILLDQESFLNDKLRKERIITRHYNYSITYNNAYLITGPRRAGKSIFTVQLTKGKEILRVDFDDERLSGIKANELNKFLEAGYQIKKKIEVIILDEIQNVKGWELFVSRIREIYPVIVTGSNARLMSSEMATYLTGRHMDFLVFPFSFKEYLRYKDVKVEETTRGIARLKEELRNYLQQGGFPETFKFDKNEYLRNLYSDIITRDVIIRCKTRKDVKGLADFLLENIGKEVSTRRVGNAFNLSHQSVENYFYCLSNAYLFLFVKRFTGKSLERYTLPRKVYVIDTGLFNTYKRLQMGKMIENLVFLELYKRYGQEVYYYSNGNAEVDFIIKDKFAIQVTYDEGGIDDREYKGLVRFSERFKDYKLIIITWDREGKEIRNGKEITLIPLWKFLVKERFAGEMIGKES, MGSDKIHHHHHHMRRDVFIETRNVMDFRQKVRALEDFSGEPGFALVFGQAGRGKTETARHYHAMNGGIFLRVMQGWSQCAFLQELCFQVCGLRPRSSATCKAKIIEALDSMPQTLFVDEADRLHVDRVEDLRDVFDLTSSTVVLIGEQELRGLLSTRRRIWSRVKQVVEFGPVAEEDVAILGDEAAGLDIAPEACSQIVRLADGDFRLVWSFIHQLELTAKTHGIQQINTELVARVSKLVASWRQQ, MGSDKIHHHHHHMRREEMWKLINATIEPIDTETSSSHILSEQDVNESTSGVIFIHTVGVMPVTVNDLIEEGRCARTDLSYADVILASRPVEEERTPVVYLNPDMNDASFYLLENAREIVPADLAKDVLLDRIVRYKRVQRVVDAVIVTDDPHLRRLLERELTKNFETLSLYERAEVFLEQHVATRPYLLVFSSALPRADGLELLLRAKQETIVPFHAIMISMYNRERDHVLAIERGVDGIMTLPLKVEEFRAWVSRLEGVHG, MGSDKIHHHHHHMRVAMWSGPRNLSTAMMYAFGNRPDCEAWDEPFYAAYLAQTGLDHPMRQTVLASQPPHYGAVVERLLATPTQPVQYLKLMTHHMLPDTSLTWATGFANIHLIRHPARVIASYTAKRAEITLDDIGFPQAARLHTALPGPIIDSADIRAAPEAMLRSLCEAIDLPFDPAMLHWPAGPKPFDGAWAPHWYDAVHRSTGFAAAEGHLPEVPDHHRGLLKDALDIYETLHQSRLRP, MGSDKIHHHHHHMRVILAPMQGVLDPFVRELLTEVNDYDLCITEFVRVVDQLLPEKVFYRLCPELKNQGFTSSGTPVRVQLLGQHPKCLAENAIRAIDLGSHGIDLNCGCPSKTVNGSNGGAALLKQPELIYRATQALRRAVPSEFPVSVKVRLGWDDISQAFEIADAVEQGGATEITVHGRTKADGYRADRINWKKISEVRERLSIPVIANGEIWHWQDGQDCLSQTGCQDLMVGRGALNIPNLSHVLKSNAEKMPWYEIQKILQKYANVENEYDSGFYHVARIKQWLRYLNKEYNEANQVFDKIKTCQTAEDLKLRLNEK, MGSDKIHHHHHHMSAISYLHLLMLRQNNSMTRHNQTLFNLPLFNQHQFNPPQLNQVAIDQLQQGQAKRLSLLWLWLQQDETRLAALMVCQKVMQQQGITDWLISAGFIRNLIWDNLHSMTSQPLNDIDVIYWRDNNPSSAEDQAIEALLVKQIALPWSVKNQARMHLRNGDMPYISCADAMSFWPEKQTAIGVKLASIDDLTSAEFQLQVTSVFGLSCLFDLSLSPNPKRDKAIFNHRVSQKGWLIHYSKLLVTE, MGSDKIHHHHHHMSDANVSRLGQANLSGDAKALFLKVFSGEVLTAFQESCVTADKHLVRTITSGKSAQFPILGKISAQYHTPGAEIAGLSVPANEQIITIDDLLISHAFIASIDEAMNHYDVRGPYSTEMGRALSYTYDKHILQLGVLAARASAPVSTEAGGGSVTDSALLTDTTGEALVAALFAAAQKLDEKFIPADERYAYLTPAAYYMLAQNTKLMNSLWGGQGSYAKGELPQVAGISLVKAVHAPFGSNIATVANGGTALTAGTSDKYAVDATSTAALVMHKAAVGTVKLMDLAMESDYDIRRQGTLMVAKYAMGHGILRPAAAVELKTA, MGSDKIHHHHHHMSDLKSLATKFASDHESGKLLVLPTVWDTWSAGLVEEAGFSGLTIGSHPVADATGSSDGENMNFADYMAVVKKITSAVSIPVSVDVESGYGLSPADLIAQILEAGAVGINVEDVVHSEGKRVREAQEHADYIAAARQAADVAGVDVVINGRTDAVKLGADVFEDPMVEAIKRIKLMEQAGARSVYPVGLSTAEQVERLVDAVSVPVNITAHPVDGHGAGDLATLAGLGVRRVTFGPLWQKWLAATSAQQLKGWA, MGSDKIHHHHHHMSEALELLGQDIVARAPGVLGHSVAFGELTIVARAASVIDTLTFLRDDAACRFHQLIDLTGVDYPERAARFDVVYHLLSLVKNHRIRLKVSTDEDTPVPSVTPVFPVADWFEREAFDMYGIFFDGHPDLRRILTDYGFHGHPLRKDFPMTGYVEVRYDDELKRVVYEPVKITEFRAFDFLSPWEGAKYALPGDEKAQ
